Measurements published in article doi:10.1101/2024.07.10.602929.

Tests used:
Assay in all cases: biolayer interferometry, immobilised biotin-peptide
GABARAP = GABARAP (UniProt O95166); conditions: reference: unphosphorylated LIR1 peptide
GABARAPL1 = GABARAPL1 (UniProt Q9H0R8); conditions: reference: unphosphorylated LIR1 peptide; sites Y1092
GABARAPL2 = GABARAPL2 (UniProt P60520); conditions: reference: unphosphorylated LIR1 peptide; sites Y1092
LC3A = LC3A (UniProt Q9H492); conditions: reference: unphosphorylated LIR1 peptide; sites Y1092
LC3B = LC3B (UniProt Q9GZQ8); conditions: reference: unphosphorylated LIR1 peptide; sites Y1092

With “EGFR LIR1, 1076-1099 (from UniProt P00533) pS1081 LIR1 peptide” the fold change (GABARAP; sites S1081) was “stronger”.
With “EGFR LIR1, 1076-1099 (from UniProt P00533) pS1081/pT1085 LIR1 peptide” the fold change (GABARAP; sites S1081,T1085) was “stronger”.
“EGFR LIR1, 1076-1099 (from UniProt P00533) pT1085 LIR1 peptide” was tested, and the fold change (GABARAP; sites T1085) was “stronger”.
“EGFR LIR1, 1076-1099 (from UniProt P00533) pY1092 LIR1 peptide” was tested, and the “binding against the reference” value (GABARAP; sites Y1092) was “same”, the “binding against the reference” value (GABARAPL1) was “same” and the “binding against the reference” value (GABARAPL2) was “same”. The “binding against the reference” value (LC3A) was “same” and the “binding against the reference” value (LC3B) was “same”.
